In article PMC5148612, “Mechanism of cargo-directed Atg8 conjugation during selective autophagy” (eLife, 2016):

T1: GST-Atg19 (S. cerevisiae, UniProt P35193 1-415)
T1 construct: Atg19, S. cerevisiae cargo receptor; also called full length GST-Atg19; Atg19 full length; source: E. coli Rosetta pLysS, purified; not shown: GST, N-terminal, kept
T1 sequence (looked up): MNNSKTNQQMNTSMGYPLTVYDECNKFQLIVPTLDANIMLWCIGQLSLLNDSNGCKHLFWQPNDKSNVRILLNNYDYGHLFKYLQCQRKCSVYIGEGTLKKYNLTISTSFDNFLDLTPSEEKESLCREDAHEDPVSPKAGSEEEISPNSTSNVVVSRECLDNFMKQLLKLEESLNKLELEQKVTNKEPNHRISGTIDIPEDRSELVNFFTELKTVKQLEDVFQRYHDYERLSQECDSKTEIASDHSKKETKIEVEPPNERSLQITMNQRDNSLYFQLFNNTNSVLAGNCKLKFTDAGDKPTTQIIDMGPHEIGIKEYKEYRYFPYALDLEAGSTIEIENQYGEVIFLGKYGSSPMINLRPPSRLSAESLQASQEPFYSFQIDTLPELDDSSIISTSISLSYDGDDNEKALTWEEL

T2: Atg12~Atg5-Atg16-mCherry complex (S. cerevisiae, UniProt P38316 1-186; Q12380 1-294; Q03818 1-150, conjugated to Atg5 (Atg12~Atg5 protein conjugate) | conjugated to Atg12)
T2 construct: Atg12, S. cerevisiae; Atg5, S. cerevisiae; Atg16, S. cerevisiae; also called Cx; source: E. coli Rosetta pLysS; Atg12~Atg5 conjugate mixed 1:1 with purified Atg16-mCherry, purified by size exclusion chromatography; not shown: His6, N-terminal, cleaved; mCherry, C-terminal, kept; copies: + +
T2 sequence (looked up) 1: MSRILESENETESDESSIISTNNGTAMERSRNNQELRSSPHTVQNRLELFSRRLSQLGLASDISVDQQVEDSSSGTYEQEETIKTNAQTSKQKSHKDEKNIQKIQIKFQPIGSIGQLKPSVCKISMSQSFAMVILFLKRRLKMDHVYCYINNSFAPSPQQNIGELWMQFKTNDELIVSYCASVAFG
T2 sequence (looked up) 2: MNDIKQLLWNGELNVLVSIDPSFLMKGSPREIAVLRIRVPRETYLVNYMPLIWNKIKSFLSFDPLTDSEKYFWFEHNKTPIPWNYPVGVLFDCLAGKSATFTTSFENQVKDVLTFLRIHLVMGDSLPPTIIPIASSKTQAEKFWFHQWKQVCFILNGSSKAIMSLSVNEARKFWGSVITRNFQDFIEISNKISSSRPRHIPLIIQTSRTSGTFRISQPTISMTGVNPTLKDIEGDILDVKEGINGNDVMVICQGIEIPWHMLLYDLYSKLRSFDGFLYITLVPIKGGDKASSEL
T2 sequence (looked up) 3: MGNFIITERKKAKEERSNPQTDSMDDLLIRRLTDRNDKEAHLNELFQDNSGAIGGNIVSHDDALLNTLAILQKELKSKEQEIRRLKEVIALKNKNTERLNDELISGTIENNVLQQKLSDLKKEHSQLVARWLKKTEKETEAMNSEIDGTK

T3: Atg12~Atg5-Atg16-meGFP complex (S. cerevisiae, UniProt P38316 1-186; Q12380 1-294; Q03818 1-150, conjugated to Atg5 (Atg12~Atg5 protein conjugate) | conjugated to Atg12)
T3 construct: Atg12, S. cerevisiae; Atg5, S. cerevisiae; Atg16, S. cerevisiae; called -eGFP in one legend and -meGFP in the methods; also called Atg12~Atg5-Atg16-eGFP; source: E. coli Rosetta pLysS, purified; not shown: meGFP, C-terminal, kept; copies: + +
T3 sequence (looked up) 1: T2 sequence (looked up) 1
T3 sequence (looked up) 2: T2 sequence (looked up) 2
T3 sequence (looked up) 3: T2 sequence (looked up) 3

T4: Atg19 (S. cerevisiae, UniProt P35193 1-415)
T4 construct: Atg19, S. cerevisiae; printed without a tag; also called Atg19 wild type
T4 sequence (looked up): T1 sequence (looked up)

T5: Atg5-Atg16 complex (S. cerevisiae, UniProt Q12380 1-294; Q03818 1-150)
T5 construct: Atg5, S. cerevisiae; Atg16, S. cerevisiae; source: E. coli Rosetta pLysS; Atg5 cleaved from GST mixed 1:1 with purified Atg16, purified by size exclusion chromatography; not shown: GST, N-terminal, cleaved
T5 sequence (looked up) 1: T2 sequence (looked up) 2
T5 sequence (looked up) 2: T2 sequence (looked up) 3

T6: Atg5-mCherry-Atg16 (1–46) complex (S. cerevisiae, UniProt Q12380 1-294; Q03818 1-46)
T6 construct: Atg5, S. cerevisiae; Atg16, S. cerevisiae, first 46 amino acids; a TEV site follows the His tag of Atg5; no cleavage is described; source: E. coli Rosetta pLysS, co-expressed, purified (Ni-NTA, Superdex 200); not shown: mCherry, C-terminal, kept
T6 sequence (looked up) 1: T2 sequence (looked up) 2
T6 sequence (looked up) 2: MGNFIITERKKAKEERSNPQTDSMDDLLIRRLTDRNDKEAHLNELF

B1: Atg5-Atg16 (1–46) (complex, S. cerevisiae)
chain 1: T2 sequence (looked up) 2
chain 2: T6 sequence (looked up) 2
notes: Atg5, S. cerevisiae; Atg16, S. cerevisiae, first 46 amino acids; the His tag of Atg5 is followed by a TEV site; also called Atg5 stabilized with the N-terminal helix of Atg16; Atg5-Atg16 (1–46) wild type; source: E. coli, co-expressed and purified in complex
B2: GST-prApe1(1–45) + Atg19 (complex, S. cerevisiae)
chain 1: MEEQREILEQLKKTLQMLTVEPSKNNQIANEEKEKKENENSWCIL
chain 2: T1 sequence (looked up)
notes: prApe1, S. cerevisiae, propeptide; Atg19, S. cerevisiae; formed beforehand on the beads; Atg19 as m17; source: purified proteins from E. coli, assembled on glutathione Sepharose beads and washed; not shown: GST, N-terminal, kept
B3: GST-prApe1(1–41) + Atg19 (complex, S. cerevisiae)
chain 1: MEEQREILEQLKKTLQMLTVEPSKNNQIANEEKEKKENENS
chain 2: T1 sequence (looked up)
notes: prApe1, S. cerevisiae, propeptide; Atg19, S. cerevisiae; formed beforehand on the beads; Atg19 as m17; also called cargo mimetic beads; source: purified proteins from E. coli, assembled on glutathione Sepharose beads and washed; not shown: GST, N-terminal, kept
B4: GFP-Atg8∆R117 (natural protein, S. cerevisiae, UniProt P38182 1-116, looked up)
chain: MKSTFKSEYPFEKRKAESERIADRFKNRIPVICEKAEKSDIPEIDKRKYLVPADLTVGQFVYVIRKRIMLPPEKAIFIFVNDTLPPTAALMSAIYQEHKDKDGFLYVTYSGENTFG
notes: Atg8, S. cerevisiae, without its last residue R117; also called meGFP-Atg8∆R117; 6xHis-meGFP-Atg8∆R117; source: E. coli Rosetta pLysS, purified; not shown: meGFP, N-terminal, kept
B5: GST-prApe1(1–41) (domain or fragment, S. cerevisiae, UniProt P14904 1-41, looked up)
chain: B3 chain 1
notes: prApe1, S. cerevisiae, propeptide; also called prApe1 propeptide; source: E. coli Rosetta pLysS, purified as a GST fusion protein; not shown: GST, N-terminal, kept
B6: GST-Atg19(365–415) (domain or fragment, S. cerevisiae, UniProt P35193 365-415, looked up)
chain: SAESLQASQEPFYSFQIDTLPELDDSSIISTSISLSYDGDDNEKALTWEEL
notes: Atg19, S. cerevisiae, C-terminal domain; also called Atg19 C-terminal domain; Atg19 CTD (365-415); source: E. coli Rosetta pLysS, purified; not shown: GST, N-terminal, kept

Tests used:
Settings in all cases: both partners purified
[1] = target: T1, GST-Atg19; experiment: pull-down; GST-fused bait 5 µM and GST-free prey 5 µM with glutathione Sepharose 4B, 1 hr at 4°C; washed with 25 mM HEPES pH 7.5, 150 mM NaCl, 1 mM DTT and 0.1% TritonX100; Western blot (Figures 1A, 1C, 2A, 2C)
[2] = target: T2, Atg12~Atg5-Atg16-mCherry complex; experiment: microscopy-based recruitment to cargo mimetic beads; beads with GST-prApe1(1–45) 25 µM, Atg19 15 µM, Atg12~Atg5-Atg16-mCherry 12.5 µM, washed after each step, with ATTO390-containing SUVs (Figure 6, Figure 6—figure supplement 2)
[3] = target: T3, Atg12~Atg5-Atg16-meGFP complex; experiment: microscopy-based protein-protein interaction assay on beads; beads with GST-prApe1(1–45) at 5 µM, washed, Atg19 (wild type, mutant or mCherry-Atg19) 5 µM, washed, Atg12~Atg5-Atg16-meGFP 5 µM (Figure 3—figure supplement 2, Figure 6—figure supplement 1)
[4] = target: T2, Atg12~Atg5-Atg16-mCherry complex; experiment: microscopy-based competition assay on beads; beads with GST-prApe1 propeptide (10 µM) and Atg19 (20 µM), Atg12~Atg5-Atg16-mCherry 5 µM; then GFP-Atg8 5 µM (1x) and 50 µM (10x) (Figure 3G)
[5] = target: B3; experiment: as above
[6] = target: T4, Atg19; experiment: microscopy-based protein-protein interaction assay on beads; beads with GST-prApe1(1–41) at 25 µM, washed, Atg19 15 µM, washed, Atg12~Atg5-Atg16-mCherry (wild type and mutants) 8.8 µM (Figure 5B, C)
[7] = target: T5, Atg5-Atg16 complex; experiment: pull-down; GST-fused bait 20 µM and GST-free prey 5 µM with glutathione Sepharose 4B, 1 hr at 4°C; washed with 25 mM HEPES pH 7.5, 150 mM NaCl, 1 mM DTT; anti-Atg5 Western blot (Figure 2E, Figure 3—figure supplement 1, Figure 4C)
[8] = target: B1; experiment: as above
[9] = target: T6, Atg5-mCherry-Atg16 (1–46) complex; experiment: microscopy-based protein-protein interaction assay on beads; glutathione beads coated with GST-fused proteins at 30 µM, Atg5-mCherry-Atg16 (1–46) 18 µM, equilibrium (Figure 3B, C)
[10] = target: B4; experiment: microscopy-based competition assay on beads; beads coated with GST-Atg19(365–415) at 30 µM, Atg5-mCherry-Atg16 (1–46) 18 µM; then GFP-Atg8∆R117 18 µM (1x), then Atg8 400 µM (22x); 25 mM HEPES pH 7.5, 150 mM NaCl, 1 mM DTT (Figure 3E, F)

Binder: B1
- binding result [1]: binds

Binder: B2
- binding result [2]: binds
- binding result [3]: binds

Binder: B3
- binding result [4]: binds

Binder: B4
- binding result [5]: binds

Binder: B5
- binding result [6]: binds

Binder: B6
- binding result [7]: binds
- binding result [8]: binds
- binding result [9]: binds
- binding result [10]: binds
